Laboratory results taken from patent US20200024330A1.

How the values were obtained:
Assay in all cases: cell-based or functional assay
[1] = biological target: HIV-1 JRFL Env (pseudovirus) (HIV-1)
[2] = biological target: HIV-1 MGRM-C-027 Env (pseudovirus) (HIV-1)
[3] = biological target: HIV-1 93UG077 Env (pseudovirus) (HIV-1)
[4] = biological target: HIV-1 MGRM-D-018 Env (pseudovirus) (HIV-1)
[5] = biological target: HIV-1 92RW020 Env (pseudovirus) (HIV-1)
[6] = biological target: HIV-1 94UG103 Env (pseudovirus) (HIV-1)
[7] = biological target: HIV-1 JR-CSF Env T202A (HIV-1 JR-CSF) (UniProt P20871)
[8] = biological target: HIV-1 JR-CSF Env N411A (HIV-1 (isolate JR-CSF)) (UniProt P20871)
[9] = biological target: HIV-1 JR-CSF Env N386A (HIV-1 isolate JR-CSF) (UniProt P20871)
[10] = biological target: HIV-1 JR-CSF Env T303A (HIV-1 JR-CSF) (UniProt P20871)
[11] = biological target: HIV-1 JR-CSF Env H330A (HIV-1 isolate JR-CSF) (UniProt P20871)
[12] = biological target: HIV-1 JR-CSF Env T388A (HIV-1 (isolate JR-CSF)) (UniProt P20871)
[13] = biological target: HIV-1 JR-CSF Env F317A (HIV-1 isolate JR-CSF) (UniProt P20871)
[14] = biological target: HIV-1 JR-CSF Env T297A (HIV-1 JR-CSF) (UniProt P20871)
[15] = biological target: HIV-1 JR-CSF Env N332A (HIV-1 isolate JR-CSF) (UniProt P20871)
[16] = biological target: HIV-1 JR-CSF Env Q337A (HIV-1 isolate JR-CSF) (UniProt P20871)
[17] = biological target: HIV-1 JR-CSF Env N295A (HIV-1 JR-CSF) (UniProt P20871)
[18] = biological target: HIV-1 APV17 envelope glycoprotein (Env) (HIV-1)
[19] = biological target: HIV-1 JR-CSF Env N262A (HIV-1 JR-CSF) (UniProt P20871)
[20] = biological target: HIV-1 JR-CSF Env N301A (HIV-1 JR-CSF) (UniProt P20871)
[21] = biological target: HIV-1 JR-CSF Env D325A (HIV-1 isolate JR-CSF) (UniProt P20871)
[22] = biological target: HIV-1 JR-CSF Env T320A (HIV-1 isolate JR-CSF) (UniProt P20871)
[23] = biological target: HIV-1 JR-CSF Env I309A (HIV-1 JR-CSF) (UniProt P20871)
[24] = biological target: HIV-1 JR-CSF Env N339A (HIV-1 isolate JR-CSF) (UniProt P20871)
[25] = biological target: HIV-1 JR-CSF Env W395A (HIV-1 (isolate JR-CSF)) (UniProt P20871)
[26] = biological target: HIV-1 APV13 envelope glycoprotein (Env) (HIV-1)
[27] = biological target: HIV-1 SF162 envelope protein (Env) on pseudotyped virus (HIV-1 isolate SF162) (UniProt P19550)
[28] = biological target: HIV-1 ADA Env (pseudovirus) (HIV-1 ADA)
[29] = biological target: aMLV envelope on pseudovirus (negative control)

Substance: 4838_L06 (PGT-121) (antibody)
- neutralization IC80 [1]: 0.0806 µg/mL
- neutralization IC90 [1]: 0.151 µg/mL
- neutralization IC95 [1]: 0.267 µg/mL
- neutralization IC80 [2]: 0.0829 µg/mL
- neutralization IC90 [2]: 0.374 µg/mL
- neutralization IC95 [2]: 3.14 µg/mL
- neutralization IC90 [3]: 0.369 µg/mL
- neutralization IC95 [3]: 0.74 µg/mL
- neutralization IC80 [4]: 0.0231 µg/mL
- neutralization IC90 [4]: 0.0414 µg/mL
- neutralization IC95 [4]: 0.0715 µg/mL
- neutralization IC80 [5]: 0.0188 µg/mL
- neutralization IC90 [5]: 0.0361 µg/mL
- neutralization IC95 [5]: 0.0671 µg/mL
- neutralization IC80 [6]: 8.85 µg/mL

Substance: PGT-122 (antibody)
- Fold IC50 increase relative to wild-type [7]: 1.5 fold
- Fold IC50 increase relative to wild-type [8]: 0.7 fold
- Fold IC50 increase relative to wild-type [9]: 1.2 fold
- Fold IC50 increase relative to wild-type [10]: 2.5 fold
- Fold IC50 increase relative to wild-type [11]: 0.5 fold
- Fold IC50 increase relative to wild-type [12]: 0.3 fold
- Fold IC50 increase relative to wild-type [13]: 3.4 fold
- Fold IC50 increase relative to wild-type [14]: 0.6 fold
- Fold IC50 increase relative to wild-type [15]: > 200 fold
- Fold IC50 increase relative to wild-type [16]: 0.5 fold
- Fold IC50 increase relative to wild-type [17]: 0.7 fold
- IC50 neutralization [18]: 0.522 µg/mL
- Fold IC50 increase relative to wild-type [19]: 1.1 fold
- Fold IC50 increase relative to wild-type [20]: 0.4 fold
- Fold IC50 increase relative to wild-type [21]: 44 fold
- Fold IC50 increase relative to wild-type [22]: 0.7 fold
- Fold IC50 increase relative to wild-type [23]: 2.1 fold
- Fold IC50 increase relative to wild-type [24]: 0.4 fold
- Fold IC50 increase relative to wild-type [25]: 0.4 fold
- IC50 neutralization [26]: 0.992 µg/mL

Substance: 1495_C14 (PGC14) (antibody)
- IC50, pseudovirus neutralization, 1 hour Virus/Ab Incubation [27]: 0.0069 µg/mL
- IC50, pseudovirus neutralization, 18 hour Virus/Ab Incubation [27]: < 0.0025 µg/mL

Substance: 1443_C16 (PG16) (TCN-116) (antibody)
- IC50 (ug/ml), neutralization [28]: 0.004 µg/mL
- IC50, pseudovirus neutralization, 1 hour Virus/Ab Incubation [27]: > 50 µg/mL
- IC50, pseudovirus neutralization, 18 hour Virus/Ab Incubation [27]: > 50 µg/mL

Substance: 5141_B17 (PGT-126) (antibody)
- IC50 [1]: 0.014 µg/mL
- IC80 [1]: 0.0454 µg/mL
- IC90 [1]: 0.09 µg/mL
- IC95 [1]: 0.169 µg/mL
- IC50 [2]: 1.14 µg/mL
- IC80 [2]: > 10 µg/mL
- IC90 [2]: > 10 µg/mL
- IC95 [2]: > 10 µg/mL
- IC50 [3]: 0.0256 µg/mL
- IC80 [3]: 0.102 µg/mL
- IC90 [3]: 0.238 µg/mL
- IC95 [3]: 0.577 µg/mL
- IC50 [4]: 0.0093 µg/mL
- IC80 [4]: 0.0391 µg/mL
- IC90 [4]: 0.0918 µg/mL
- IC95 [4]: 0.205 µg/mL
- IC50 [5]: 0.0046 µg/mL
- IC80 [5]: 0.0168 µg/mL
- IC90 [5]: 0.0359 µg/mL
- IC95 [5]: 0.0728 µg/mL
- IC50 [6]: 0.0091 µg/mL
- IC80 [6]: 0.0316 µg/mL
- IC90 [6]: 0.0655 µg/mL
- IC95 [6]: 0.128 µg/mL

Substance: 5123_A06 (PGT-125) (antibody)
- neutralization IC50 [29]: > 10 µg/mL
- neutralization IC80 [29]: > 10 µg/mL
- neutralization IC90 [29]: > 10 µg/mL
- neutralization IC95 [29]: > 10 µg/mL
